Data from the supplement of paper PMC9876800.

tested on: peptide library, one residue held at a place counted from the S/T acceptor; experiment: relative phosphorylation of the sub-library (ratio to the mean residue at this position); human; higher = residue favoured; settings: K fixed; at +2
Method in brief: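 Human or orthologue kinase constructs, purified and recombinant, were incubated under kinase-specific conditions in 384-well plates with biotinylated degenerate peptide sub-libraries. Each sub-library fixed one residue at one position around a central Ser/Thr. Incubations lasted 90 min with peptides at 50 μM and 50 μM ATP spiked with γ-32P-ATP, after which spots on streptavidin membranes were phosphorimaged and quantified by densitometry. Relative sub-library phosphorylation is a ratio to the mean residue at that position.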

Sequence of SGK3, construct: aa119-end (Q96BR1 119-496, looked up): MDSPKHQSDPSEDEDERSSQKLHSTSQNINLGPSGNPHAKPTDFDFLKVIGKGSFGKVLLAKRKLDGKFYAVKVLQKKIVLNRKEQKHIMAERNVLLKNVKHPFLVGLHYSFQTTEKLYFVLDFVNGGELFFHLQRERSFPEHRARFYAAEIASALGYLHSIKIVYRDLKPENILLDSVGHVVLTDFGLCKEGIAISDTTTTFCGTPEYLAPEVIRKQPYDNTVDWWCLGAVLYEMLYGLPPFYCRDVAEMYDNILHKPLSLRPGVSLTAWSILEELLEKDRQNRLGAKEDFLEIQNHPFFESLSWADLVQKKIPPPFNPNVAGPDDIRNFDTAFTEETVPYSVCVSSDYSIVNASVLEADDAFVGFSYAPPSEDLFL
Sequence of NEK11, construct: Full length (Q8NG66 whole entry, looked up): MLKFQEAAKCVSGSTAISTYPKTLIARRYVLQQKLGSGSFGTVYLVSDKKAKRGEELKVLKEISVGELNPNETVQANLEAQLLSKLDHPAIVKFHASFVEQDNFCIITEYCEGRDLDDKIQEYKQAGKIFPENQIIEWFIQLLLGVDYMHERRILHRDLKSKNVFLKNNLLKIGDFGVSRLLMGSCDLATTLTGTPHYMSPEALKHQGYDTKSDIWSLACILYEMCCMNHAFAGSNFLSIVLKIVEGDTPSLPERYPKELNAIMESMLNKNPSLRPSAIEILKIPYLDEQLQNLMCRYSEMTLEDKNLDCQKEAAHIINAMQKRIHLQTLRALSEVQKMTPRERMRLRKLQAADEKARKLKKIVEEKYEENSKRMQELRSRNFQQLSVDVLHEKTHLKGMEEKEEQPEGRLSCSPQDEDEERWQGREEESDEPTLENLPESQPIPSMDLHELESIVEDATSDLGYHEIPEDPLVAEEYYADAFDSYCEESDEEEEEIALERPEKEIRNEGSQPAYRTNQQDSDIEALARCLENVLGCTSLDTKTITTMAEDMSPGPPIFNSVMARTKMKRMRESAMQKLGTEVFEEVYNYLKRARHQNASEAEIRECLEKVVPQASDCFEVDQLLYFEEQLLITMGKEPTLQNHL
Sequence of NEK4, construct: Full length (P51957 whole entry, looked up): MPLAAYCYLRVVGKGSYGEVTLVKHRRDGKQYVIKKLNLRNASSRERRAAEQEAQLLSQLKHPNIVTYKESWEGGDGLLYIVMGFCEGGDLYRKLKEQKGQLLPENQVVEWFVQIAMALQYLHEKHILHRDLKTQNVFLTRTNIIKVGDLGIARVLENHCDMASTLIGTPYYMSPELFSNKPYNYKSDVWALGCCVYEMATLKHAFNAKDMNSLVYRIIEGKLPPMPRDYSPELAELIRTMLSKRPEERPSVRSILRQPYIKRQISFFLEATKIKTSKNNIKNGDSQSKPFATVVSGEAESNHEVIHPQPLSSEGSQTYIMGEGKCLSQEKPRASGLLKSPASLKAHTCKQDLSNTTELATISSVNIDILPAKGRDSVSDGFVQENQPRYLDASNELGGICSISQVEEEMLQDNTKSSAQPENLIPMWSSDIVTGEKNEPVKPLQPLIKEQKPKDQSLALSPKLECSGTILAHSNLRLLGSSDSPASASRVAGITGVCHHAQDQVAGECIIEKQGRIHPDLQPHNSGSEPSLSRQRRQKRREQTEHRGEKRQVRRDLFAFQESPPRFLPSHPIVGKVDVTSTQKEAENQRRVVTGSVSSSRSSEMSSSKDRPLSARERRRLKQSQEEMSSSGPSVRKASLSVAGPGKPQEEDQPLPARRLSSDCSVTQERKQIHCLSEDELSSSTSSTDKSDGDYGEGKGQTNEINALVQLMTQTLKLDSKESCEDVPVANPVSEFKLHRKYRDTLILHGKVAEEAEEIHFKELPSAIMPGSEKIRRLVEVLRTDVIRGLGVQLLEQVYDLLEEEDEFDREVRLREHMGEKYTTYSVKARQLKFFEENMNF
Sequence of AURKB, construct: Full length (Q96GD4 whole entry, looked up): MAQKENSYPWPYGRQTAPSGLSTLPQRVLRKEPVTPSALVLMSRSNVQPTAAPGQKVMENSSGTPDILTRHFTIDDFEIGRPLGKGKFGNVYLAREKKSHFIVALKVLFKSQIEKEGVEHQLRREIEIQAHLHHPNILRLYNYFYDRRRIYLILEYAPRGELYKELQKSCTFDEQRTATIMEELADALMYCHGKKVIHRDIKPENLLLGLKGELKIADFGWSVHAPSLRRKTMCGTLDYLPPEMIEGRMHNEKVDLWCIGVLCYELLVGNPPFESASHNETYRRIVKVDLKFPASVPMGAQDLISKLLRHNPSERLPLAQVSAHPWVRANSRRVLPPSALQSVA
Sequence of GRK7, construct: Full length (Q8WTQ7 whole entry, looked up): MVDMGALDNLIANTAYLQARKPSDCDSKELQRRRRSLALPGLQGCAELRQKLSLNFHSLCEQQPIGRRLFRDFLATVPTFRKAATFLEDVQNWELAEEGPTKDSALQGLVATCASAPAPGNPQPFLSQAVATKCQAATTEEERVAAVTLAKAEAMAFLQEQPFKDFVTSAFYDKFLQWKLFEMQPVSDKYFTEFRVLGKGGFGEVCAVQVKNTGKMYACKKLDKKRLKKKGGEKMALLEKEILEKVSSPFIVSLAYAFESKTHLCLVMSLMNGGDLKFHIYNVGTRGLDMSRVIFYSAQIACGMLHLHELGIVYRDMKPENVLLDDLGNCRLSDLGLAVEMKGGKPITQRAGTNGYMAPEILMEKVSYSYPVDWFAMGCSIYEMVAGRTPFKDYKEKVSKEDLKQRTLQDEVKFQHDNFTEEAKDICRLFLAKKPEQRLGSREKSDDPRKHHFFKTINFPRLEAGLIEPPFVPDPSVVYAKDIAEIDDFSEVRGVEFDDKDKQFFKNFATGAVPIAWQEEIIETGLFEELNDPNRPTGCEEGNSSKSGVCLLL
Sequence of TP53RK, construct: Full length (Q96S44 whole entry, looked up): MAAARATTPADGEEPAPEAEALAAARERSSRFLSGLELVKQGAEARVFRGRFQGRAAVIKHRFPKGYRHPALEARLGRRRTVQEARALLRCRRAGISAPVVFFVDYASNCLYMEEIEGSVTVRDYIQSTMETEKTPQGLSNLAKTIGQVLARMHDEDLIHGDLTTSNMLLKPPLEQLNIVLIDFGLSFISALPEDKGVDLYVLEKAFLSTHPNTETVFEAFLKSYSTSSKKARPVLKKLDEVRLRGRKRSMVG
Sequence of GRK2, construct: Full length (P25098 whole entry, looked up): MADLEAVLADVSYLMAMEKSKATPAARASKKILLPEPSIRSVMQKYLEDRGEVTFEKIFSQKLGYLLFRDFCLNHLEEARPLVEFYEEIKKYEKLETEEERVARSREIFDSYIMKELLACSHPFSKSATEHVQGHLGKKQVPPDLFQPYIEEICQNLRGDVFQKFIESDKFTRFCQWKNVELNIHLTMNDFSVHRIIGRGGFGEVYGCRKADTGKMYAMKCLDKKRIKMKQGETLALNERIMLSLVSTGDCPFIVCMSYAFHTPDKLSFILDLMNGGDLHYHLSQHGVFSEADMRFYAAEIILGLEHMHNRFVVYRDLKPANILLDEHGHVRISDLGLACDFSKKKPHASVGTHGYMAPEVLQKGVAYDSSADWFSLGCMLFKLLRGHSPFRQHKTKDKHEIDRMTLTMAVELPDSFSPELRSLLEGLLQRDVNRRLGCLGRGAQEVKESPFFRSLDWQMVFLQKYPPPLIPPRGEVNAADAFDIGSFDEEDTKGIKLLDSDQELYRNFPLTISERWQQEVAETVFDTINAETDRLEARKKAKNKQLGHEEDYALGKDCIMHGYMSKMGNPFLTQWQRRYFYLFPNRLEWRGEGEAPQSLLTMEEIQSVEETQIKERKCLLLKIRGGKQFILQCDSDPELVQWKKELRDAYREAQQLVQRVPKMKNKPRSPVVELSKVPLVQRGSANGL

Point of comparison: “MKNK1, construct: Full length (D165-205) (from UniProt Q9BUB5)”, relative phosphorylation 1.03. Against it:
- TP53RK, construct: Full length (from UniProt Q96S44) — lower, 1.01
- GRK2, construct: Full length (from UniProt P25098) — lower, 0.747
- NEK4, construct: Full length (from UniProt P51957) — higher, 2.01
- AURKB, construct: Full length (from UniProt Q96GD4) — lower, 0.77
- SGK3, construct: aa119-end (from UniProt Q96BR1) — lower, 0.987
- GRK7, construct: Full length (from UniProt Q8WTQ7) — lower, 1.02

same assay, conditions: K fixed; at +3

Point of comparison: “GRK7, construct: Full length (from UniProt Q8WTQ7)”, relative phosphorylation 1.54. Against it:
- NEK11, construct: Full length (from UniProt Q8NG66) — lower, 1.3
- MKNK1, construct: Full length (D165-205) (from UniProt Q9BUB5) — higher, 2.18
- TP53RK, construct: Full length (from UniProt Q96S44) — lower, 0.99
- GRK2, construct: Full length (from UniProt P25098) — lower, 0.778
- NEK4, construct: Full length (from UniProt P51957) — lower, 0.977
- AURKB, construct: Full length (from UniProt Q96GD4) — lower, 0.955
- SGK3, construct: aa119-end (from UniProt Q96BR1) — lower, 0.995

same assay, conditions: K fixed; at +4

Point of comparison: “NEK4, construct: Full length (from UniProt P51957)”, relative phosphorylation 1.56. Against it:
- NEK11, construct: Full length (from UniProt Q8NG66) — higher, 1.96
- MKNK1, construct: Full length (D165-205) (from UniProt Q9BUB5) — higher, 1.82
- TP53RK, construct: Full length (from UniProt Q96S44) — lower, 1.09
- GRK2, construct: Full length (from UniProt P25098) — lower, 0.84
- AURKB, construct: Full length (from UniProt Q96GD4) — lower, 1.13
- SGK3, construct: aa119-end (from UniProt Q96BR1) — lower, 1.08
- GRK7, construct: Full length (from UniProt Q8WTQ7) — lower, 1.05

same assay, conditions: K fixed; at -1

Point of comparison: “MKNK1, construct: Full length (D165-205) (from UniProt Q9BUB5)”, relative phosphorylation 3.23. Against it:
- NEK11, construct: Full length (from UniProt Q8NG66) — lower, 1.67
- TP53RK, construct: Full length (from UniProt Q96S44) — lower, 0.864
- GRK2, construct: Full length (from UniProt P25098) — lower, 0.919
- NEK4, construct: Full length (from UniProt P51957) — lower, 1.4
- AURKB, construct: Full length (from UniProt Q96GD4) — lower, 2.06
- SGK3, construct: aa119-end (from UniProt Q96BR1) — lower, 1.71
- GRK7, construct: Full length (from UniProt Q8WTQ7) — lower, 1.47

same assay, conditions: K fixed; at -2

Point of comparison: “TP53RK, construct: Full length (from UniProt Q96S44)”, relative phosphorylation 0.848. Against it:
- NEK11, construct: Full length (from UniProt Q8NG66) — higher, 0.867
- MKNK1, construct: Full length (D165-205) (from UniProt Q9BUB5) — higher, 2.45
- GRK2, construct: Full length (from UniProt P25098) — lower, 0.741
- NEK4, construct: Full length (from UniProt P51957) — higher, 0.902
- AURKB, construct: Full length (from UniProt Q96GD4) — higher, 2.28
- SGK3, construct: aa119-end (from UniProt Q96BR1) — higher, 3.22
- GRK7, construct: Full length (from UniProt Q8WTQ7) — lower, 0.693

same assay, conditions: K fixed; at -3

Point of comparison: “SGK3, construct: aa119-end (from UniProt Q96BR1)”, relative phosphorylation 2.08. Against it:
- NEK11, construct: Full length (from UniProt Q8NG66) — lower, 1.12
- MKNK1, construct: Full length (D165-205) (from UniProt Q9BUB5) — higher, 3.62
- TP53RK, construct: Full length (from UniProt Q96S44) — lower, 0.985
- GRK2, construct: Full length (from UniProt P25098) — lower, 0.815
- NEK4, construct: Full length (from UniProt P51957) — lower, 0.985
- AURKB, construct: Full length (from UniProt Q96GD4) — higher, 2.2
- GRK7, construct: Full length (from UniProt Q8WTQ7) — lower, 1.44

same assay, conditions: K fixed; at -4

Point of comparison: “TP53RK, construct: Full length (from UniProt Q96S44)”, relative phosphorylation 1.07. Against it:
- NEK11, construct: Full length (from UniProt Q8NG66) — lower, 1.06
- MKNK1, construct: Full length (D165-205) (from UniProt Q9BUB5) — higher, 2.16
- GRK2, construct: Full length (from UniProt P25098) — lower, 0.965
- NEK4, construct: Full length (from UniProt P51957) — higher, 1.17
- AURKB, construct: Full length (from UniProt Q96GD4) — higher, 1.8
- SGK3, construct: aa119-end (from UniProt Q96BR1) — higher, 1.73
- GRK7, construct: Full length (from UniProt Q8WTQ7) — lower, 0.738

same assay, conditions: K fixed; at -5

Point of comparison: “SGK3, construct: aa119-end (from UniProt Q96BR1)”, relative phosphorylation 1.94. Against it:
- NEK11, construct: Full length (from UniProt Q8NG66) — lower, 0.901
- MKNK1, construct: Full length (D165-205) (from UniProt Q9BUB5) — lower, 1.58
- TP53RK, construct: Full length (from UniProt Q96S44) — lower, 1.12
- GRK2, construct: Full length (from UniProt P25098) — lower, 0.912
- NEK4, construct: Full length (from UniProt P51957) — lower, 1.16
- AURKB, construct: Full length (from UniProt Q96GD4) — lower, 1.81
- GRK7, construct: Full length (from UniProt Q8WTQ7) — lower, 0.838

same assay, conditions: L fixed; at +1

Point of comparison: “GRK2, construct: Full length (from UniProt P25098)”, relative phosphorylation 0.883. Against it:
- NEK11, construct: Full length (from UniProt Q8NG66) — higher, 1.86
- MKNK1, construct: Full length (D165-205) (from UniProt Q9BUB5) — higher, 0.991
- TP53RK, construct: Full length (from UniProt Q96S44) — higher, 1.01
- NEK4, construct: Full length (from UniProt P51957) — higher, 2.19
- AURKB, construct: Full length (from UniProt Q96GD4) — higher, 1.49
- SGK3, construct: aa119-end (from UniProt Q96BR1) — higher, 1.29
- GRK7, construct: Full length (from UniProt Q8WTQ7) — higher, 0.907

same assay, conditions: L fixed; at +2

Point of comparison: “GRK2, construct: Full length (from UniProt P25098)”, relative phosphorylation 0.886. Against it:
- NEK11, construct: Full length (from UniProt Q8NG66) — lower, 0.787
- MKNK1, construct: Full length (D165-205) (from UniProt Q9BUB5) — higher, 0.907
- TP53RK, construct: Full length (from UniProt Q96S44) — lower, 0.85
- NEK4, construct: Full length (from UniProt P51957) — higher, 0.939
- AURKB, construct: Full length (from UniProt Q96GD4) — higher, 0.948
- SGK3, construct: aa119-end (from UniProt Q96BR1) — higher, 1.59
- GRK7, construct: Full length (from UniProt Q8WTQ7) — higher, 0.921

same assay, conditions: L fixed; at +3

Point of comparison: “NEK4, construct: Full length (from UniProt P51957)”, relative phosphorylation 1.23. Against it:
- NEK11, construct: Full length (from UniProt Q8NG66) — higher, 1.25
- MKNK1, construct: Full length (D165-205) (from UniProt Q9BUB5) — lower, 1.01
- TP53RK, construct: Full length (from UniProt Q96S44) — lower, 0.926
- GRK2, construct: Full length (from UniProt P25098) — lower, 1.01
- AURKB, construct: Full length (from UniProt Q96GD4) — lower, 1.14
